Measured values as given in US20090239800A1 (GEORGIA TECH RESEARCH CORPORARION, published 2009).
No end group written: not given here.

What was measured:
ClC-1 = assay: cell-based or functional assay
rabbit ClC-2 [1] = target: T1, rabbit ClC-2 (rabbit, UniProt P51789 1-898); assay: cell-based or functional assay
T1 sequence (looked up): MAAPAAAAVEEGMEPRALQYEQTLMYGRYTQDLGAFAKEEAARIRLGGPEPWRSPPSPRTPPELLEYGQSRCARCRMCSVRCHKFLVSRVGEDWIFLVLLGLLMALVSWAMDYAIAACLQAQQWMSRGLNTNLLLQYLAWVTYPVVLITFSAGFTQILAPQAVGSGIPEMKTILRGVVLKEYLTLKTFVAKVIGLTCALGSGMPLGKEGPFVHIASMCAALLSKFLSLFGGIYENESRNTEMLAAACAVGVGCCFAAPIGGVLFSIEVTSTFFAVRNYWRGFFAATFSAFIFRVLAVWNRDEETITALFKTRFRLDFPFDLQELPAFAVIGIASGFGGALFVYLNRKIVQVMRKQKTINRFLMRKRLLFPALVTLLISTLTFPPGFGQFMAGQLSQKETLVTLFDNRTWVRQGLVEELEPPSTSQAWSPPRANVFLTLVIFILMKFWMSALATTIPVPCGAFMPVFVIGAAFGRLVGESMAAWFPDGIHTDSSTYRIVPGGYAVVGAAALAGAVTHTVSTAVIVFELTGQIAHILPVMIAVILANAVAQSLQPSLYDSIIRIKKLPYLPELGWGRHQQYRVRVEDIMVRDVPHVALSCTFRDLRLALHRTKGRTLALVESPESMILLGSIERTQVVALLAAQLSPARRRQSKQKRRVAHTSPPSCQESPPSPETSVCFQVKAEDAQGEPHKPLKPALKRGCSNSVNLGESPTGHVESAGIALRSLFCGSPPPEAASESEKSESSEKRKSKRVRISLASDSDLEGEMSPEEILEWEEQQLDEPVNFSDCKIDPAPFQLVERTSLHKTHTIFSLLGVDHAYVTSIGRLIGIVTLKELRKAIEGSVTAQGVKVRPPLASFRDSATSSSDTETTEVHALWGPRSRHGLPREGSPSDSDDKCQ

rabbit ClC-2 [2] = target: T1, rabbit ClC-2; assay: dose-response of inhibition of ClC-2 window current, inside-out multi-channel patches, synthetic toxin backfilled in the pipette, VM=-100 mV (FIG. 3B)

B1: GaTx2 (peptide)
peptide: VSCEDCPDHCSTQKARAKCDNDKCVCEPI
modifications: disulfide (positions not given here)
notes: also called Leiuropeptide II; LPII
For B1, the “ClC-1 tail currents at VM=-120 mV from +60 mV, 10 nM GaTx2 against after washout of toxin” value (ClC-1) was 1.04 fold, the “latency to first opening upon stepping from VM 0 to -100 mV, 20 pM GaTx2” value (rabbit ClC-2 [1]) was 7.67 fold increase and the Kd (rabbit ClC-2 [2]) was 0.012 nM.
